The nature of this data set: 14C assay with IPTG-induced recombinant E. coli cells (14CO2 capture from [14C]-carboxyl-labeled dicamba). The note with it: for Dicamba Decarboxylase Activity: IPTG-induced recombinant E. coli cells, [14C]-carboxyl-labeled dicamba, 14CO2 capture; for Enzymatic Detection level: dicamba decarboxylation activity of the protein of the given SEQ ID NO.

B1: 33 (protein, listed as Rhizobium leguminosarum)
chain: MAQGKIALEEHFAIPETLQDSAGFVPGDYWKELSARLLDIQEKRLRLMDAHGIEKMILSLNAPAVQAIPDRAKALEISRRANDFLAEQCVKNPNRFLGFAALPLQDPDAATQELQRCVTTMGFVGALVNGFSQEGDGTTPLYYDLPQYRSFWAEVEKLNVPFYLHPRNPLPQDSRIYAGHSWLMGPTWAFAQETAVHALRLMGSGLFDEHPALRIIVGHMGEGLPYMMWRIDNRNAWVKVEKSYPAKRPIADYFNENFYITTSGNFRTQSLIDAMLEIGADRILFSADWPFENIDHAANWFDSATISEADRLKIGRTNAVSLFKLDR
For B1, the “Dicamba Decarboxylase Activity” value is “High” and the “Enzymatic Detection level” value was “High”.

B2: SEQ ID NO:26: o-pyrocatechuate decarboxylase, Variovorax paradoxus EPS (protein, listed as Variovorax paradoxus)
chain: MATHMAPMKNKIALEEHFAIDLTIADSQVYARPEVWQGLKSNLLDFEQQRLEKMDEWGTEFSILSLNSPAVQGIPDAKRAIEVAQRANDVLAEQVKRHPTRFGGFAALPMQDPEASARELERCVNQLGFHGFLVNGFSQVGDENIVVYYDDARFNDFWTAAAALKKPFYMHPRDPLLAREPIYDGAHWLTGPTWAFAMETAIHALRLMSSGMFDRHPALQMILGHFGEGIPFNIWRVDHILRKGRRGMPCDKEIGEYLRSNVHITTSGNFRTPTLLSTMLEVGSDRIMYSVDYPFEKHEDAARWFDTCEISENDRQKIGRDNARKLFGLK
With B2, the “decarboxylation activity of dicamba” value (E. coli cell assay, 108 sequences tested) is listed as “showed decarboxylation activity of dicamba”.

B3: 38 (protein, listed as Variovorax paradoxus)
chain: MAQGKIGLEEHFAIPQTLQDSAGFVPGVYWKELSSRLLDIHDGRLRQMDEHGMEMMILSLNAPAVQAVADPVKAYELAVRANDFLAEQVAKRPDRFQAFAALPMQDPEKATQELERCMSVLGFRGALVNGFSQVGTPDNVAYYDAPQYAPFWAAAERLDAPFYLHPRNPIASWAQIYEGHPWLLGPTWAFAQETAVHALRLMASGLFDRHPGLKIILGHLGEGLPYNMWRVDHRNAWVKAPKGYPAKRKLCEYFQENFYLTTSGNFRTQTLIDAMLEVGSDRILFSTDWPFENIDHASNWFNDTSISEADRKKIGRTNAMSLFKLA
Regarding B3, the “Dicamba Decarboxylase Activity” value is reported as “Low” and the “Enzymatic Detection level” value is given as “Low”.

B4: 34 (protein)
chain: MAQGKIGLEEHFAIPETLNDSAGFVPGDYWKELSRRLLDIQDDRLRQMDENGMEMMLLSLNAPAVQAVPDRKQACELAVRANDFLAEQVSRRPDRFQALAALPLQDPDFATVELTRCVNELGMRGALVNGFSQIDTPDNVVYYDAPQYASFWAAVEKLDVPFYLHPRNPIASWAQIYDGHPWLLGPTWAFGQETAVHALRLMASGLFDRHPALQIVLGHLGEGLPYSLWRIDNRNAWVKAPKTHPAKKTFRHYFQQNFHLTTSGNFHNQTLIDAILEIGADRILFSTDWPFENIDHAAKWFDSASISEADRTKIGRTNAMKLFKLVA
modifications: Cupriavidus necator
As to B4, the “Dicamba Decarboxylase Activity” value is reported as “High” and the “Enzymatic Detection level” value is listed as “High”.

B5: 35 (protein)
chain: MAFKASRKIALEEHFAIDATVQDSAGFVPPSYWAELKRRLLDIHDRRIDEMDRNGVELMVLSLNAPTVQAVPNIKDAYDLSRRANDFLAEQIVKRPERFKGFAALPMQSPDLAARELERCVKELNFVGALVNGFSQVEESGTALYYDLPQYRQFWSVVQALDVPFYLHPRNPLPAHAPIYEGHPWLLGPTWAFGQETAVHALRLMGSGLFDEYPELKIILGHMGEGLPYSMWRIDNRNAWVETQPNYPAKKRIAEYFHKNFWLTTSGNFRTQTLIDAMLEIGSDRILFSTDWPFENVDHAAQWFDDAAISENDRIKIARTNAARLFKLEP
modifications: Burkholderia sp
Take B5: the “Dicamba Decarboxylase Activity” value is “High” and the “Enzymatic Detection level” value is given as “High”.

B6: 36 (protein, listed as Agrobacterium sp.)
chain: MAQGKVALEEHFAIPETLQDSAGFVPGDYWTELQHRLLDIQDTRLKLMDAHGIETMILSLNAPAVQAIPDKTKAIEIARRANDALAEECAKRPNRFLAFAALPLQDPDAATQELQRCVNDLGFVGALVNGFSQEGDGQIPLYYDLPQYRPFWGEVEKLDVPFYLHPRNPLPQDSRIYDGHPWLLGPTWAFAQETAVHALRLMASGLFDEHPRLNIILGHMGEGLPYMMWRIDHRNAWVKLPPRYPAKRRFVDYFNENFHITTSGNFRTQTLIDAILEIGADRILFSTDWPFENIDHASDWFHATSIAEADRVKIGRTNARRLFKLDGR
B6: the “Dicamba Decarboxylase Activity” value is listed as “High” and the “Enzymatic Detection level” value is on record as “High”.

B7: 39 (protein, listed as Agrobacterium fabrum)
chain: MAQGKVALEEHFAIPETLQDSAGFVPGDCWTELQHRLLDIQDTRLKLMDAHGIETMILSLNAPAVQAIPDKTKAIEIARRANDALAEECAKRPDRFLAFAALPLQDPDAATQELRRCVNDLGFVGALVNGFSQEGDGQTPLYYDLPQYRPFWGEVEKLDVPFYLHPRNPLPQDSRIYDGHPWLLGPTWAFAQETAVHALRLMASGLFDEHPRLDIILGHMGEGLPYMMWRIDHRNAWVKLPPRYPAKRRFVDYFNENFHITTSGNFRTQTLIDAILEIGADRILFSTDWPFENIDHASDWFHATSIAEADRVKIGRTNARRLFKLDGR
B7: the “Dicamba Decarboxylase Activity” value was “No” and the “Enzymatic Detection level” value was “No”.

B8: 3 (protein, listed as Lactobacillus plantarum)
chain: MAKLITVEEHFESAAVTAAMRQAVGNAVLPAVSPALRQYMRDNLPSPAIMQDTQHERLAFMAQYGIDMQVLSYGNSSPQNLSPEQAVPLSQLANDELAKAVVAHPDRYAGLAVLPVGDPQAAVAELNRAVTTLGLRGVLLKGNYQNKFFDEPFFLPIFEAAAALDVPVYFHPSFIPQAVTSHYFESNQWSDVVTGILSSAGYGWHMDVGIQVIRMIASGIFDKLPGLKLISGHWGELVPLFLERLDDELTTYTDLQYPFSTYYRHNVYVTPSGILSAPQLQFMLAEMGADHLMYSIDYPYKQPETSGSFLDIADLTDEQRAQIAFGTATTLFKL
For B8, the “Dicamba Decarboxylase Activity” value is reported as “Low” and the “Enzymatic Detection level” value was “Low”.

B9: 37 (protein, listed as Burkholderia gladioli)
chain: MATFSNVKKIALEEHFAIAETIEDSAGFVPPDDWVELRGRLLDIQERRLAEMDRAGIELMVLSLNAPAVQAIRDPRQAVELARRANDYLAEQVARRPDRFRAFAALPMQAPEQAIREAERCVRELGFVGALVNGFSEAEDGAELYYDLPRYRPFWAALEALEVPFYLHPRNPLAGRAPIYDGHSWLMGPTWAFGQETAVHALRLMGSGLFDAHPRLQIILGHMGEGLPYSMWRVDNRNAWVSAKPNYPAEKPIAEYFRNNFWLTTSGNFRTQTLIDAMLEIGSDRILFSADWPFENMDHAADWFDHASISENDRIKIGRGNAERLLKLGR
As to B9, the “Dicamba Decarboxylase Activity” value was “Low” and the “Enzymatic Detection level” value is on record as “Low”.

B10: 40 (protein, listed as Rhodococcus jostii)
chain: MAQGKIALEEHFAIPETLNDSAGFVPGTYWDELQARLLDIQDVRLKLMDEHNIETMILSLNAPAVQAIPERERAIDIARRANDVLAEECAKRPDRFRGFAALPLQDPDAAAEELRRCVTELGFVGALVNGFSQSATVDGGSTPLYYDLPRYRPFWAEVERLDVPFYLHPRNPLNQDARIYEGHPWLLGPTWAFAQETAVHALRLMASGLFDEHPGLRIVLGHMGEGIPAMLWRIDHRNAWVDVPPAYPAKRRMVDYFTENFFVTTSGNFRTQTLIDLLLELGSERVMFSTDWPFENINHAAEWFDAASISEADRLKIGRTNAATLFKLDR
Consider B10, for which the “Dicamba Decarboxylase Activity” value is “Low” and the “Enzymatic Detection level” value is reported as “Low”.

For the origin of these results see patent publication US20140287419A1, “Compositions Having Dicamba Decarboxylase Activity and Methods of Use” (priority 2013, published 2014).
